Data on 1 molecule can be found in PMC6287933 (Methods in enzymology, 2018).

This assay concerns the target T1, Methylobacterium extorquens (Mex) PqqE (Methylobacterium extorquens, UniProt P71517 1-384).
T1 sequence (looked up): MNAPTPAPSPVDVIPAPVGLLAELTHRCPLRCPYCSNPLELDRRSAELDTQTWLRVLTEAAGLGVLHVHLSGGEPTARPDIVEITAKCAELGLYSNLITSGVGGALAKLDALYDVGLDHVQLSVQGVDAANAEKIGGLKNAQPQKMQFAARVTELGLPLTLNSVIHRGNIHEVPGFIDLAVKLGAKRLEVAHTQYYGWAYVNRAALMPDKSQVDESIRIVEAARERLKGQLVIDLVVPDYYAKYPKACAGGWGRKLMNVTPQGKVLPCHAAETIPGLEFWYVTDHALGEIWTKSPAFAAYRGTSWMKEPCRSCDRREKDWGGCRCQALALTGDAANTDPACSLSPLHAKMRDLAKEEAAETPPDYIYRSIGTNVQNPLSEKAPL
Put plainly: native MS.

B1: Methylobacterium extorquens (Mex) PqqD (domain or fragment, Methylobacterium extorquens AM1, UniProt Q49150 280-372, looked up)
chain: EPTAFSGSDVPRLPRGVRLRFDEVRNKHVLLAPERTFDLDDNAVAVLKLVDGRNTVSQIAQILGQTYDADPAIIEADILPMLAGLAQKRVLER
What is called stoichiometry N is a count of units in the complex or per binding partner. Consider B1, for which the “stoichiometry N” value came out at 1.
